GTPase activity of TOC34 (free phosphate from GTP, 27°C, 30 min) with CBL10 and 5 mM CaCl2 data for one substance are collected here from PMC5156837.

The test concerns the target GST-TOC34 fusion protein (Arabidopsis thaliana) (UniProt Q38906).
Sequence of UniProt Q38906 (Q38906 whole entry, the tested form may be a part): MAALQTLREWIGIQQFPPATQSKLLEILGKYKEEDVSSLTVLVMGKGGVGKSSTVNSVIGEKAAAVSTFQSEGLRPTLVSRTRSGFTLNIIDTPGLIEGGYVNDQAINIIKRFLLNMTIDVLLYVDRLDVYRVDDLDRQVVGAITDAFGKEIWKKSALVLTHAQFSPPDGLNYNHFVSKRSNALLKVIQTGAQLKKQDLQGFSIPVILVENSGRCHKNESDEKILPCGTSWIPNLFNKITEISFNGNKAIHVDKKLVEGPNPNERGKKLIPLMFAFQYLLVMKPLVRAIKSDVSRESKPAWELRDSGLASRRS

For the substance “CBL10-cMyc (thrombin-cleaved from GST-CBL10-cMyc) (from UniProt Q7FRS8 1-256)”, the GTPase activity of TOC34 (free phosphate from GTP, 27°C, 30 min) with CBL10 and 5 mM CaCl2 stood at 0.5 fold.
